These results are taken from US20240010687A1 (University of Washington, published 2024).

For assay [1], the target named is T1, 54.7_112_Axle.
T1 construct: Axle of a C3-C3 design (C3 homotrimer); It carries no His tag in the bicistronic pull-down; For biolayer interferometry it was Avi-tagged and biotinylated; also called C3-C3 design 54.7.112
T1 chain: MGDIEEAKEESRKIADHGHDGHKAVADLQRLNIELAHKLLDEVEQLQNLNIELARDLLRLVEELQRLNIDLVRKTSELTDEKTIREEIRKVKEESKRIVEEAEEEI
Kind of assay: biolayer interferometry, biotinylated axle on streptavidin tips, ring in solution. How it is done: (§1) FIG. 13. Biolayer interferometry assays measuring in vitro assembly of ring and axle parts into a full rotary system. For each 6 designs, the equilibrium binding curves from biolayer interferometry binding assays is shown on the left and the corresponding Biolayer interferometry kinetic binding traces shown on the right. Biotinylated axles were immobilized on the tip and the binding in a solution of fre rings was measured. For both D3-C5 and D3-C3, a fresh ring solution was prepared by buffer exchange from citrate buffer to TBS with reducing agent, and immediately used for binding assays.
Biolayer interferometry experiments were performed on an OctetRED96 BLI system (ForteBio, Menlo Park, CA). Enzymatic protein biotinylation was performed on SEC purified Avi-tagged proteins prior to the assay. The BirA500 (Avidity, LLC) biotinylation kit was used to biotinylate protein from the IMAC elution according to the manufacturer protocol. Reactions were incubated at 4C overnight and purified using size exclusion chromatography on a Superdex™ 6 10/300 Increase GL (GE Healthcare) in TBS buffer (25 mM Tris pH 8.0, 25 mM NaCl). Streptavidin coated biosensors were equilibrated for 10 minutes in Octet buffer (10 mM HEPES pH 7.4, 25 mM NaCl, 3 mM EDTA, 0.05% Surfactant P20) supplemented with 1 mg/ml Bovine Serum Albumin (SigmaAldrich). […]

Assay [2] deals with T2, C3D3_AR113_Axle (D3-C3).
T2 construct: De novo designed D3 homohexameric axle, a surface redesign of 1552_1na0C3_int2_11; For biolayer interferometry the axle was Avi-tagged and enzymatically biotinylated; also called D3 axle; designed D3 axle
T2 chain: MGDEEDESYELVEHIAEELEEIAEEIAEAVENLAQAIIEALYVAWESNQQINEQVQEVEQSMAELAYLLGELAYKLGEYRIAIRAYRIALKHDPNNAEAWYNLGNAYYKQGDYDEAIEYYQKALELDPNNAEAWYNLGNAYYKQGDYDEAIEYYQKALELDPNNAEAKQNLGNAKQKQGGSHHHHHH
Briefly: negative stain EM after pH-controlled, oxidoreductive assembly of axle and ring.

Assay [3] addresses T3, 119RC4_20_Axle (D8-C4).
T3 construct: D8 homo-16-meric axle; two C4 rings assemble around one axle; also called D8 axle; D8A_1615
T3 chain: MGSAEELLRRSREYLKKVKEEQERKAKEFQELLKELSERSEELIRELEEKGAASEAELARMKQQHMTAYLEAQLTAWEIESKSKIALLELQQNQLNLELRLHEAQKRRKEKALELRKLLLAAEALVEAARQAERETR
Briefly: stoichiometric mixing of separately purified axle and ring, then SEC, SAXS and EM.

Assay [4] deals with T4, C8D8_6_49_119RC4_20_Axle (C8-C4).
T4 construct: C8 homooctameric axle, the circular permutation version of the D8 axle; For biolayer interferometry it was Avi-tagged and biotinylated; also called C8 axle
T4 chain: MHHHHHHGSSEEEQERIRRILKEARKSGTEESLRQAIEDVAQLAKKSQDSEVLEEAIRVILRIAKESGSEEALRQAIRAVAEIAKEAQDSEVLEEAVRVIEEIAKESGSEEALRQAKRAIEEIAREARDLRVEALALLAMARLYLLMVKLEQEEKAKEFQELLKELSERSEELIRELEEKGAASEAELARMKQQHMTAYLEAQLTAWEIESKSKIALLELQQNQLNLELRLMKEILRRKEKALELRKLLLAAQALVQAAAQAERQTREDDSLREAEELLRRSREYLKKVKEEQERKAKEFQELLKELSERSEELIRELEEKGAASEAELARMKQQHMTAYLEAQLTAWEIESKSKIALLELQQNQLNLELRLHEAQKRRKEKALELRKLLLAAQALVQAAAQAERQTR
Kind of assay: SEC, SAXS, biolayer interferometry binding kinetics and negative stain EM. The procedure: as §1
(§2) Protein samples were purified by SEC in 25 mM Tris pH 8.0, 25 mM NaCl and 1% glycerol; elution fractions corresponding to the protein were further concentrated using 3K protein concentrators (Millipore Sigma) and the flow-through was used as blank for buffer subtraction. SAXS Scattering measurements were performed at the SIBYLS 12.3.1 beamline at the Advanced Light Source. […] Collected data were processed using the SAXS FrameSlice™ online server and analysed using the ScÅtter software package(23). […]

Assay [5] concerns the target T5, C5C3_3250_Axle (C5-C3).
T5 construct: C5 homopentameric axle; For biolayer interferometry it was Avi-tagged and biotinylated; also called C5 axle
T5 chain: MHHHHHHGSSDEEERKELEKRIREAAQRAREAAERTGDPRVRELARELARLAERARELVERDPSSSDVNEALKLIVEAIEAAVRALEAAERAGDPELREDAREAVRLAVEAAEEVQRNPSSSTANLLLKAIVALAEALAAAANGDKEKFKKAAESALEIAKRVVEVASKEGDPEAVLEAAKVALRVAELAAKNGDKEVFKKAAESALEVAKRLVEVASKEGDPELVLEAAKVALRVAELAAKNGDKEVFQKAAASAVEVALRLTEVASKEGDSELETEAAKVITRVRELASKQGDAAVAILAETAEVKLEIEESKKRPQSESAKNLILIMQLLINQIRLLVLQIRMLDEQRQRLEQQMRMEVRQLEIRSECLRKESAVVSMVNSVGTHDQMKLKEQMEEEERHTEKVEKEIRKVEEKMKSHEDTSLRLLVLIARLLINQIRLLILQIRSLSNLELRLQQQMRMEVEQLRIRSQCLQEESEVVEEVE
The description is as above. How it is done: as §1, §2

B1: 54.7_112_Ring (designed binder)
chain: MGVEELLLLARAAHHSGTTVEEAYKLALKLGISVKELLLLARAAHNSGTTVEEAYKLALKLGISVEELLLLAKAAHYSGTTVEEAYKLALKLGISVRELLLLAKAAHFSGTTVEEAYKLALKLGISVEELLLLARAAHHSGTTVEEAYKLALKLGISVKELLLLARAAHNSGTTVEEAYKLALKLGISVEELLLLAKAAHYSGTTVEEAYKLALKLGISVRELLLLAKAAHFSGTTVEEAYKLALKLGISVEELLLLARAAHHSGTTVEEAYKLALKLGISVKELLLLARAAHNSGTTVEEAYKLALKLGISVEELLLLAKAAHYSGTTVEEAYKLALKLGISVRELLLLAKAAHFSGTTVEEAYKLALKLGISGSHHHHHH
notes: also called C3-C3 design 54.7.112
As to B1, the binding result in assay [1] is recorded as “binds”.

B2: C3D3_AR113_Ring (D3-C3) (designed binder)
chain: MGQRSGHARQLKRHLHRLRRHLERLDKHAKHLRQILSERPQDERVKDSIDLLEESVRIVKISIKIFEASVRALLWAINKEAEELAKSPDPHDLHRAVRLARAVVQADPGSNLSKKALEIILRAAAELAKLPDPNALAAAARAASQVQREQPGSNLAKAAQEIMRQASRAAEEAARRAKETLEKAEKRGDPKTALQAVRTVVKVAAALNQIATMAGSEEAQERAARVAAEAAELALRVFELAEKQGDPHVARRARKLIQTVLQILLRILTQILETATKIIEEANKLLRKHRRSSRKDPKLVETHVELVKRHERLVRQHLKIALMHALAVLELAFPDAEAAKLASKAAKEAEELCKQSTDERLCDLLAELAALLIELAARYPDSEAAKLALKAALEAIELCKQSTDEELCEELVKLAQKLIELAKRYPDSEEAKRALKEAKELIEQCKESTDEDECRELVKRAEELIREAKEGSHHHHHH
notes: De novo designed C3 homotrimeric ring with disulfides and histidine networks at the subunit interfaces; also called C3 ring; ring of the D3-C3 rotor
Regarding B2, the binding result in assay [2] is on record as “binds”.

B3: 119RC4_20_Ring (D8-C4) (designed binder)
chain: MGCDAIQAAAALGEAGISSNEILELLAAAAELGLDPDAIQAAAQLGEAGISSEEILELLRAAHELGLDPDAIAAAADLGQAGISSEEILELLRAAHELGLDPDAIQAAAALGEAGISSEEILELLRAAHELGLDPDAIQAAAQLGEAGISSEEILELLRAAHELGLDPDCIAAAADLGQAGISSSEITALLLAAAAIELAKRADDKDVREIVRDALELASRSTNDEVIRLALEAAVLAARSTDSDVLEIVKDALELAKQSTNEEVIKLALKAAVLAAKSTDEEVLEEVKEALRRAKESTDEEEIKEELRKAVEEAEGSHHHHHH
notes: C4 ring of four subunits, each fused to DHR20; two rings sit on each D8 axle; also called C4 ring
On to B3, for which the binding result in assay [3] is listed as “binds”.

B4: C8D8_6_49_119RC4_20_Ring (C8-C4) (designed binder)
chain: MGCDAIQAAAALGEAGISSNEILELLAAAAELGLDPDAIQAAAQLGEAGISSEEILELLRAAHELGLDPDAIAAAADLGQAGISSEEILELLRAAHELGLDPDAIQAAAALGEAGISSEEILELLRAAHELGLDPDAIQAAAQLGEAGISSEEILELLRAAHELGLDPDCIAAAADLGQAGISSSEITALLLAAAAIELAKRADDKDVREIVRDALELASRSTNDEVIRLALEAAVLAARSTDSDVLEIVKDALELAKQSTNEEVIKLALKAAVLAAKSTDEEVLEEVKEALRRAKESTDEEEIKEELRKAVEEAEGSHHHHHH
notes: C4 ring of four subunits; also called C4 ring
B4: in assay [4], the binding result is reported as “binds”.

B5: C5C3_3250_Ring (C5-C3) (designed binder)
chain: MGNRSLHANKLKTHLENLREHLKRLDEHAKQLRDILSEHPHDERVKDSIDLLEESVRIVKISIKIFEASVRALLWAINKEAEELAKSPDPADLERAVRLAAAVVRADPGSNLSKKALEIILRAAAELAKLPDPKALAAAAEAASRVQREQPGSNLAKAAQEIMRQASRAAEEAARRAKETLEKAEKDGDPRTALQAVMTVVEVAKALNIIATMAGSEEAQERAARVAAEAAELALRVFELAEKQGDPEVAHNARKLIEIVLHILLQILTQILETATKIIREANELLEKHRRSHHHDPKLVETHVELVKRHERLVRQHLKIALMHALAVLELAFPDAEAAKLASKAAKEAEELCKQSTDERLCDLLAELAALLIELAARYPDSEAAKLALKAALEAIELCKQSTDEELCEELVKLAQKLIELAKRYPDSEEAKRALKEAKELIEQCKESTDEDECRELVKRAEELIREAKEGSHHHHHH
notes: C3 homotrimeric ring; also called C3 ring
B5: the binding result in assay [5] is reported as “binds”.
